Consider 5 molecules from US20210395357A1 (IPHASE PHARMA SERVICE, published 2021).

In assay [1] the target is T1, rhIL-6-His (recombinant human IL-6, Val30 to Met212, C-terminal 6 His) (human, UniProt P05231 30-212). Nature of the assay: ELISA, rhIL-6-His coated at 1 µg/ml, anti-human IgG-HRP. Here is the method:
The rhIL-6-His antigen was diluted with PBS (pH=8.6) to 1 μg/ml, added to a microtiter plate at 100 μl/well, coated overnight at 4° C., and blocked at 37° C. for 2 hour by adding 300 μl/well of 3% BSA after washing the plate 4 times with PBST. […] The plate was washed for 4 times with PBST, added with HRP (horseradish peroxidase) labeled goat anti-human IgG antibody (ProteinTech, SA00001-1), and incubated at 37° C. for 1 hour. The plate was washed for 4 times with PBST, added with 100 μl/well of TMB color-developing solution (Zuman Bio, ZD311), and incubated at 37° C. for 15 minutes; after color development, 50 μl/well of stop solution (1M sulfuric acid) was added, and the absorbance value at 450 nm wavelength was measured on the microplate reader (BioTek, ELx808).
On the technique in general: ELISA stands for enzyme-linked immunosorbent assay.

Assay [2] addresses T1, rhIL-6-His (recombinant human IL-6, …). Kind of assay: cell-based or functional assay.
Assay [3] shares this target. Kind of assay: competition ELISA: antibody pre-incubated with rhIL-6-His, binding to coated rhIL-6R detected with anti-His-HRP. As to the method: The rhIL-6R (Sino Biological, 10398-H02H) antigen was diluted with PBS (pH=8.6) to 1.5 μg/ml, added to a microtiter plate A at 100 μl/well, coated overnight at 4° C., and blocked at 37° C. for 2 hour by adding 300 μl/well of 3% BSA after washing the plate for 4 times with PBST. […] The plate A was washed once with PBST, added with the mixture in plate B, and incubated at 37° C. for 1 hour. The plate A was washed for 4 times with PBST, added with 100 μl/well of HRP (horseradish peroxidase) labeled anti-His antibody (ProteinTech, HRP-66005), and incubated at 37° C. for 1 hour. The plate was washed for 4 times with PBST, added with 100 μl/well of TMB color-developing solution (Zuman Bio, ZD311), and incubated at 37° C. for 15 minutes for color development; 50 μl/well of stop solution (1M sulfuric acid) was added, and the absorbance value at 450 nm wavelength was measured on the microplate reader (BioTek, ELx808).

The target is the same in assay [4]. Kind of assay: BLI, ForteBio Blitz. (In BLI a coated tip is dipped into the sample, and binding shifts an interference pattern.)

T1 sequence (P05231 other isoform, or with tags, fused parts or gaps limits assumed): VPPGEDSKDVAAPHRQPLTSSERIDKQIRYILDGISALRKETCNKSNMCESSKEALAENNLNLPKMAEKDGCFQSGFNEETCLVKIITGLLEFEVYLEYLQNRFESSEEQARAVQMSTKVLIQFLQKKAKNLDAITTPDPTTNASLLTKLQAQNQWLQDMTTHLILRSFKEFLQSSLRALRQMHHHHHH

B1: Siltuximab (antibody, V domains shown)
VH: EVQLVESGGKLLKPGGSLKLSCAASGFTFSSFAMSWFRQSPEKRLEWVAEISSGGSYTYYPDTVTGRFTISRDNAKNTLYLEMSSLRSEDTAMYYCARGLWGYYALDYWGQGTSVTVSS
VL: QIVLIQSPAIMSASPGEKVTMTCSASSSVSYMYWYQQKPGSSPRLLIYDTSNLASGVPVRFSGSGSGTSYSLTISRMEAEDAATYYCQQWSGYPYTFGGGTKLEIK
In the case of B1, the EC50 (as a rule, the concentration needed to bring the measured effect to its halfway point) in assay [1] stood at 67.3 µg/mL. In addition, in assay [2], the “concentration of SAA in supernatant of rhIL-6 stimulated HepG2 cells at 100 µg/mL antibody” value (“concentration of SAA” below) is 148 ng/mL and the “concentration that inhibits IL-6-stimulated phosphorylation of p-Stat3 (Tyr705) in DLD-1 cells, Western blot” value came out at 64 µg/mL. Besides, the IC50 (commonly the concentration that inhibits the measured activity by half) in assay [3] was 12.5 µg/mL. Further, in assay [4], the kon – broadly, the second-order rate constant of association – is 28900 M⁻¹ s⁻¹.

B2: HZ-0408d (antibody, human IgG1, kappa, V domains shown)
VH: QVTLKESGPVLVKPTETLTLTCTVSGFSLSTSGMGVGWIRQPPGKALEWLAHIWWDDDKRYNSALKSRLTISKDTSKSQVVLTMTNMDPVDTATYYCARIGGLYVDYLMDYWGQGTLVTVSS
VL: DIQMTQSPSSLSASVGDRVTITCRASQSISDYLHWYQQKPGKAPKLLIYYASQSISGVPSRFSGSGSGTDFTLTISSLQPEDFATYYCQNGHSFPWTFGQGTKVEIKR
notes: Humanized from murine 140-4; IgG1 type antibody from 293F cells; also called L3/H3
Consider B2, for which the 50% effective concentration (EC50) in assay [1] came to 0.39 µg/mL. Further, in assay [2], the “concentration of SAA” value was found to be 85 ng/mL and the “concentration that inhibits IL-6-stimulated phosphorylation of p-Stat3 (Tyr705) in DLD-1 cells, Western blot” value amounted to 32 µg/mL. Moreover, in assay [3], the IC50 was 3.04 µg/mL. Besides, in assay [4], the kon came to 93200 M⁻¹ s⁻¹.

B3: HZ-0408c (antibody, human IgG1, kappa, V domains shown)
VH: QVTLKESGPVLVKPTETLTLTCTVSGFSLSTSGMGVGWIRQPPGKALEWLAHIWWDDDKRYNSALKSRLTISKDTSKSQVVLTMTNMDPVDTATYYCARIGGLYVDYLMDYWGQGTLVTVSS
VL: EIVLTQSPATLSLSPGERATLSCRASQSISDYLHWYQQKPGQAPRLLIYYASQSISGIPARFSGSGSGTDFTLTISSLEPEDFAVYYCQNGHSFPWTFGQGTKVEIKR
notes: Humanized from murine 140-4; IgG1 type antibody from 293F cells; also called L2/H3
For the molecule B3, the concentration for a half-maximal effect (EC50) in assay [1] is 0.18 µg/mL. In addition, in assay [2], the “concentration of SAA” value is 12.5 ng/mL and the “concentration that inhibits IL-6-stimulated phosphorylation of p-Stat3 (Tyr705) in DLD-1 cells, Western blot” value is 8 µg/mL. In assay [3], the IC50 amounted to 1.29 µg/mL. In assay [4], the association rate constant (kon) stood at 74300 M⁻¹ s⁻¹.

B4: HZ-0408a (antibody, human IgG1, kappa, V domains shown)
VH: QVTLKESGPALVKPTQTLTLTCTFSGFSLSTSGMGVGWIRQPPGKALEWLAHIWWDDDKRYNSALKSRLTISKDTSKNQVVLTMTNMDPVDTATYYCARIGGLYVDYLMDYWGQGTLVTVSS
VL: EIVLTQSPDFQSVTPKEKVTITCRASQSISDYLHWYQQKPDQSPKLLIKYASQSISGVPSRFSGSGSGTDFTLTINSLEAEDAATYYCQNGHSFPWTFGQGTKVEIKR
notes: Humanized from murine 140-4; expressed in 293F cells and captured on Protein A as an IgG1 type antibody; also called L1/H2
Consider B4, for which the concentration giving a half-maximal response (EC50) in assay [1] worked out at 0.16 µg/mL. Moreover, in assay [2], the “concentration of SAA” value was found to be 30.5 ng/mL and the “concentration that inhibits IL-6-stimulated phosphorylation of p-Stat3 (Tyr705) in DLD-1 cells, Western blot” value came out at 2 µg/mL. Besides, the IC50 in assay [3] amounted to 0.72 µg/mL. Moreover, the kon in assay [4] was found to be 128000 M⁻¹ s⁻¹.

B5: HZ-0408b (antibody, human IgG1, kappa, V domains shown)
VH: QVTLKESGPVLVKPTETLTLTCTVSGFSLSTSGMGVGWIRQPPGKALEWLAHIWWDDDKRYNSALKSRLTISKDTSKSQVVLTMTNMDPVDTATYYCARIGGLYVDYLMDYWGQGTLVTVSS
VL: EIVLTQSPDFQSVTPKEKVTITCRASQSISDYLHWYQQKPDQSPKLLIKYASQSISGVPSRFSGSGSGTDFTLTINSLEAEDAATYYCQNGHSFPWTFGQGTKVEIKR
notes: Humanized from murine 140-4; IgG1 type antibody from 293F cells; also called L1/H3
Consider B5, for which the EC50 in assay [1] was 0.09 µg/mL. In assay [2], the “concentration of SAA” value is -2.5 ng/mL and the “concentration that inhibits IL-6-stimulated phosphorylation of p-Stat3 (Tyr705) in DLD-1 cells, Western blot” value is 2 µg/mL. The concentration for half-maximal inhibition (IC50) in assay [3] is 0.53 µg/mL. Moreover, the kon in assay [4] amounted to 233000 M⁻¹ s⁻¹.
